US20160185836A1 (published 2016)

T1: GDF11 (UniProt O95390 299-407)
T1 sequence (looked up): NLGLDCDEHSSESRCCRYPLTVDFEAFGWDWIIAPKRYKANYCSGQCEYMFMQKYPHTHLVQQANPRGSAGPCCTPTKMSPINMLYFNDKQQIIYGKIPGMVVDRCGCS

T2: activin A (UniProt P08476 311-426)
T2 sequence (looked up): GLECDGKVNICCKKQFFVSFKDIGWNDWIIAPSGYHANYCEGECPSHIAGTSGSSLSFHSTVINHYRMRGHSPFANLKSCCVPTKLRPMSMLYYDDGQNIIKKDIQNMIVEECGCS


Tests used:
[1] = target: T1, GDF11; assay: cell-based or functional assay
[2] = target: T2, activin A; assay: cell-based or functional assay
[3] = target: T1, GDF11; assay: binding assay, method not stated
[4] = target: T2, activin A; assay: binding assay, method not stated

Row | Binder | IC50 (ng/ml), A-204 Reporter Gene Assay [1] [ng/mL] | IC50 (ng/ml), A-204 Reporter Gene Assay [2] [ng/mL] | Kd [3] [pM] | Kd [4] [pM]
1 | FST(278)-IgG2 (Fc fusion) GNCWLRQAKNGRCQVLYKTELSKEECCSTGRLSTSWTEEDVNDNTLFKWMIFNGGAPNCIPCKETCENVDCGPGKKCRMNKKNKPRCVCAPDCSNITWKGPVCGLDGKTYRNECALLKARCKEQPELEVQYQGRCKKTCRDVFCPGSSTCVVDQTNNAYCVTCNRICPEPASSEQYLCGNDGVTYSSACHLRKATCLLGRSIGLAYEGKCIKAKSCEDIQCTGGKKCLWDFKVGRGRCSLCDELCPDSKSDEPVCASDNATYASECAMKEAACSSGVLTGGGVECPPCPAPPVAGPSVFLFPPKPKDTLMISRTPEVTCVVVDVSHEDPEVQFNWYVDGVEVHNAKTKPREEQFNSTFRVVSVLTVVHQDWLNGKEYKCKVSNKGLPAPIEKTISKTKGQPREPQVYTLPPSREEMTKNQVSLTCLVKGFYPSDIAVEWESNGQPENNYKTTPPMLDSDGSFFLYSKLTVDKSRWQQGNVFSCSVMHEALHNHYTQKSLSLSPGK | 91 | 521 | – | –
2 | FST(288)-IgG2 (Fc fusion, Expressed with the follistatin leader in HEK-293 or CHO cells; also called mature FST(288)-IgG2) GNCWLRQAKNGRCQVLYKTELSKEECCSTGRLSTSWTEEDVNDNTLFKWMIFNGGAPNCIPCKETCENVDCGPGKKCRMNKKNKPRCVCAPDCSNITWKGPVCGLDGKTYRNECALLKARCKEQPELEVQYQGRCKKTCRDVFCPGSSTCVVDQTNNAYCVTCNRICPEPASSEQYLCGNDGVTYSSACHLRKATCLLGRSIGLAYEGKCIKAKSCEDIQCTGGKKCLWDFKVGRGRCSLCDELCPDSKSDEPVCASDNATYASECAMKEAACSSGVLLEVKHSGSCNTGGGVECPPCPAPPVAGPSVFLFPPKPKDTLMISRTPEVTCVVVDVSHEDPEVQFNWYVDGVEVHNAKTKPREEQFNSTFRVVSVLTVVHQDWLNGKEYKCKVSNKGLPAPIEKTISKTKGQPREPQVYTLPPSREEMTKNQVSLTCLVKGFYPSDIAVEWESNGQPENNYKTTPPMLDSDGSFFLYSKLTVDKSRWQQGNVFSCSVMHEALHNHYTQKSLSLSPGK | 41 | 30 | < 10 | < 10
3 | FST(303)-IgG2 (Fc fusion) GNCWLRQAKNGRCQVLYKTELSKEECCSTGRLSTSWTEEDVNDNTLFKWMIFNGGAPNCIPCKETCENVDCGPGKKCRMNKKNKPRCVCAPDCSNITWKGPVCGLDGKTYRNECALLKARCKEQPELEVQYQGRCKKTCRDVFCPGSSTCVVDQTNNAYCVTCNRICPEPASSEQYLCGNDGVTYSSACHLRKATCLLGRSIGLAYEGKCIKAKSCEDIQCTGGKKCLWDFKVGRGRCSLCDELCPDSKSDEPVCASDNATYASECAMKEAACSSGVLLEVKHSGSCNSISEDTEEEEEDEDQTGGGVECPPCPAPPVAGPSVFLFPPKPKDTLMISRTPEVTCVVVDVSHEDPEVQFNWYVDGVEVHNAKTKPREEQFNSTFRVVSVLTVVHQDWLNGKEYKCKVSNKGLPAPIEKTISKTKGQPREPQVYTLPPSREEMTKNQVSLTCLVKGFYPSDIAVEWESNGQPENNYKTTPPMLDSDGSFFLYSKLTVDKSRWQQGNVFSCSVMHEALHNHYTQKSLSLSPGK | 18 | 2 | – | –

Other lines, results leading:

Row | IC50 (ng/ml), A-204 Reporter Gene Assay [1] [ng/mL] | IC50 (ng/ml), A-204 Reporter Gene Assay [2] [ng/mL] | Kd [3] [pM] | Kd [4] [pM] | Binder
4 | 15 | 10 | < 10 | < 10 | FST(315)-IgG2 (Fc fusion, Expressed with the follistatin leader in HEK-293 or CHO cells; also called mature FST(315)-IgG2) GNCWLRQAKNGRCQVLYKTELSKEECCSTGRLSTSWTEEDVNDNTLFKWMIFNGGAPNCIPCKETCENVDCGPGKKCRMNKKNKPRCVCAPDCSNITWKGPVCGLDGKTYRNECALLKARCKEQPELEVQYQGRCKKTCRDVFCPGSSTCVVDQTNNAYCVTCNRICPEPASSEQYLCGNDGVTYSSACHLRKATCLLGRSIGLAYEGKCIKAKSCEDIQCTGGKKCLWDFKVGRGRCSLCDELCPDSKSDEPVCASDNATYASECAMKEAACSSGVLLEVKHSGSCNSISEDTEEEEEDEDQDYSFPISSILEWTGGGVECPPCPAPPVAGPSVFLFPPKPKDTLMISRTPEVTCVVVDVSHEDPEVQFNWYVDGVEVHNAKTKPREEQFNSTFRVVSVLTVVHQDWLNGKEYKCKVSNKGLPAPIEKTISKTKGQPREPQVYTLPPSREEMTKNQVSLTCLVKGFYPSDIAVEWESNGQPENNYKTTPPMLDSDGSFFLYSKLTVDKSRWQQGNVFSCSVMHEALHNHYTQKSLSLSPGK
5 | 26 | 20 | < 10 | < 10 | FST(291)-IgG2 (Fc fusion, Expressed with the follistatin leader in HEK-293 or CHO cells; also called mature FST(291)-IgG2) GNCWLRQAKNGRCQVLYKTELSKEECCSTGRLSTSWTEEDVNDNTLFKWMIFNGGAPNCIPCKETCENVDCGPGKKCRMNKKNKPRCVCAPDCSNITWKGPVCGLDGKTYRNECALLKARCKEQPELEVQYQGRCKKTCRDVFCPGSSTCVVDQTNNAYCVTCNRICPEPASSEQYLCGNDGVTYSSACHLRKATCLLGRSIGLAYEGKCIKAKSCEDIQCTGGKKCLWDFKVGRGRCSLCDELCPDSKSDEPVCASDNATYASECAMKEAACSSGVLLEVKHSGSCNSISTGGGVECPPCPAPPVAGPSVFLFPPKPKDTLMISRTPEVTCVVVDVSHEDPEVQFNWYVDGVEVHNAKTKPREEQFNSTFRVVSVLTVVHQDWLNGKEYKCKVSNKGLPAPIEKTISKTKGQPREPQVYTLPPSREEMTKNQVSLTCLVKGFYPSDIAVEWESNGQPENNYKTTPPMLDSDGSFFLYSKLTVDKSRWQQGNVFSCSVMHEALHNHYTQKSLSLSPGK
6 | 123 | 369 | – | – | FST(284)-IgG2 (Fc fusion) GNCWLRQAKNGRCQVLYKTELSKEECCSTGRLSTSWTEEDVNDNTLFKWMIFNGGAPNCIPCKETCENVDCGPGKKCRMNKKNKPRCVCAPDCSNITWKGPVCGLDGKTYRNECALLKARCKEQPELEVQYQGRCKKTCRDVFCPGSSTCVVDQTNNAYCVTCNRICPEPASSEQYLCGNDGVTYSSACHLRKATCLLGRSIGLAYEGKCIKAKSCEDIQCTGGKKCLWDFKVGRGRCSLCDELCPDSKSDEPVCASDNATYASECAMKEAACSSGVLLEVKHSTGGGVECPPCPAPPVAGPSVFLFPPKPKDTLMISRTPEVTCVVVDVSHEDPEVQFNWYVDGVEVHNAKTKPREEQFNSTFRVVSVLTVVHQDWLNGKEYKCKVSNKGLPAPIEKTISKTKGQPREPQVYTLPPSREEMTKNQVSLTCLVKGFYPSDIAVEWESNGQPENNYKTTPPMLDSDGSFFLYSKLTVDKSRWQQGNVFSCSVMHEALHNHYTQKSLSLSPGK
